± gives the uncertainty stated by the source.
Assay: amyloid nucleation score (Sup35N fusion, yeast selection) (log enrichment); library NNK2; higher = more nucleation; inactive = no reads after selection
Procedure, shortened: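 The nucleation score equals the log enrichment of output over input reads from DiMSum, centred on the mode score of non-aggregating sequences. It was computed only for sequences with 100 or more input reads. The reads came from Illumina sequencing of plasmid inserts from psi-negative yeast expressing Sup35N fused to peptides of 20 random codons, induced with 100 μM copper sulfate for 24 hours and grown 7 days at 30°C without adenine and uracil.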

TLIGNDDLVVTCTYSYDPTL and TLKACKNFYGGIFCNHGSES are within error of each other in amyloid nucleation score: -0.145 ± 1.1 for the first, -0.72 ± 1.1 for the second.

Going from TLNNCRPFCLLELANLINRD to TLNSRWVNNSPVEM, the amyloid nucleation score falls from 3.4 ± 0.058 to -0.12 ± 1.

First: TLPCFRVFYVTFQYSNHLLS
Second: TLPSPIRYRVNTNNRM
The amyloid nucleation score of the first is higher: 8.55 ± 0.042 for the first, 0.397 ± 0.54 for the second.

Compared with TLSKYCEDKFEWFCIAVICR, TLTLSTIHWNLY is lower in amyloid nucleation score: 6.95 ± 0.04 for the first, 6.13 ± 0.066 for the second.

TLTYFLNSSWD and TMGKCITIGPAFIHNT are within error of each other in amyloid nucleation score: 1.93 ± 0.25 for the first, 1.51 ± 0.32 for the second.

First: TMGYDSSTVTVFGGSMFLRL
Second: TMILVCRRAFKCYLTQDWSD
The amyloid nucleation score of the first is higher: 2.56 ± 0.2 for the first, 0.538 ± 0.3 for the second.

TMIYMHRLLLNVVDVCCHWF and TMKHPDMS are within error of each other in amyloid nucleation score: 0.261 ± 0.74 for the first, -0.152 ± 0.55 for the second.

TMKLLQRYYLSFFPI and TMLYKWKVGNTFSHVLCLLL are within error of each other in amyloid nucleation score: -1.72 ± 0.64 for the first, -0.14 ± 1 for the second.

TMPTY and TMVALKI are within error of each other in amyloid nucleation score: 0.709 ± 0.66 for the first, -0.15 ± 0.44 for the second.

First: TMYRYASFKADLSDFKAAYE
Second: TMYYVTGGV
The amyloid nucleation score of the first is lower: 0.524 ± 0.81 for the first, 2.44 ± 0.056 for the second.

Compared with TNFFLNKRAGYNWLLVFEVI, TNLQSVRYVAHTF is higher in amyloid nucleation score: -0.886 ± 0.48 for the first, 3.96 ± 0.068 for the second.

TNVGCRVLCTLRSVTPDVVR and TNWQGQRIRYAKDLGGPCGL are within error of each other in amyloid nucleation score: 0.646 ± 0.62 for the first, 0.506 ± 0.35 for the second.

TPHGIYEHLPQEY and TPILFVT are within error of each other in amyloid nucleation score: -0.273 ± 0.49 for the first, -0.746 ± 0.56 for the second.

Going from TPPTHWSFFMIWARCEKLGG to TQLLQHGGGFRSRISSRLGR, the amyloid nucleation score rises from -1.01 ± 0.64 to 1.21 ± 0.41.

TQRHATENLKFTTWAYKSRE and TQSNALPVGPYSFTFFGRGY are within error of each other in amyloid nucleation score: 0.994 ± 0.16 for the first, 0.54 ± 0.8 for the second.

Compared with TRFGPPVHSKLCPPAMWPGW, TRISMRLWFSGRELIEALKF is lower in amyloid nucleation score: 0.691 ± 0.23 for the first, -0.29 ± 0.65 for the second.

TRLMCMFERYQACFTDLSDI and TRMDNAY are within error of each other in amyloid nucleation score: -0.698 ± 0.54 for the first, -0.132 ± 0.65 for the second.

TRNYLFTTSNWYVSSKMSNS and TRWARYALNVIEHWQLSWVK are within error of each other in amyloid nucleation score: -0.632 ± 0.56 for the first, 0.145 ± 0.63 for the second.

Compared with TRWSANYPRCWPTMRRCLSL, TSCFLLIQGIFGGLGITGMP is higher in amyloid nucleation score: 0.858 ± 0.51 for the first, 2.97 ± 0.099 for the second.

Going from TSFLNLIFIYLALKRWLILF to TSFQVFINYVSL, the amyloid nucleation score rises from 4.74 ± 0.06 to 7.605 ± 0.046.

Compared with TSHSFVLVY, TSIIVTMLDPYWVISNSCAH is higher in amyloid nucleation score: -0.705 ± 0.33 for the first, 5.701 ± 0.038 for the second.

Going from TSIYLVLGYIFESATRLF to TSLDRRICKRGTVIVEIPHA, the amyloid nucleation score rises from 0.144 ± 0.79 to 5.28 ± 0.055.

Compared with TSNSII, TSPRCYRFMIQSMYGLRTRV is higher in amyloid nucleation score: -0.876 ± 0.49 for the first, 0.883 ± 0.17 for the second.

First: TSPSKLFRDLFYHPRSKPVA
Second: TSSSYTWLIKSMRVFTNYNV
The amyloid nucleation score of the first is higher: 0.708 ± 0.41 for the first, -1.32 ± 0.38 for the second.

TSSWRVWAYQSAAANMHTDL and TSVGYMMLSNW are within error of each other in amyloid nucleation score: 5.01 ± 0.06 for the first, 4.88 ± 0.095 for the second.

Going from TSVQFCLLICLFRSTGNCAR to TSVVFWWGKGGKVGEPNEAG, the amyloid nucleation score falls from 2.1 ± 0.1 to 0.147 ± 1.1.

TSWNWSFFWCTYYLFTQVRG and TSWVYDEYVVCLPSWASYVL are within error of each other in amyloid nucleation score: -0.772 ± 0.42 for the first, -0.509 ± 1.1 for the second.

TTDCG and TTEWFHESFREQFVMESFVS are within error of each other in amyloid nucleation score: -0.712 ± 0.33 for the first, -1.26 ± 0.41 for the second.

Going from TTGHQLNDCYLKGCFSEWIL to TTLYGGAFIGIGYVGRHTEN, the amyloid nucleation score rises from -0.073 ± 1 to 3.21 ± 0.15.

Going from TTMCMGLLTNWWAGRCL to TVCKPIRWLNNEFCDYVSNT, the amyloid nucleation score falls from 2.76 ± 0.1 to -0.644 ± 0.31.

First: TVCSIMASFQYRDSRRQRSG
Second: TVELLGILAHCSFCS
The amyloid nucleation score of the first is lower: 4.02 ± 0.078 for the first, 8.247 ± 0.054 for the second.

Compared with TVHRCD, TVRLFFLG is higher in amyloid nucleation score: 0.627 ± 0.57 for the first, 3.98 ± 0.11 for the second.

First: TVSMLLGRRCVRFRVMVRVG
Second: TVSYCVAYSMQQMLS
The amyloid nucleation score of the first is higher: 4.79 ± 0.05 for the first, -0.072 ± 1.1 for the second.

TVWDLPLVAFCKHGTDHLLS and TWGFYAVTCLQLLPRFVKHV are within error of each other in amyloid nucleation score: -0.121 ± 1.1 for the first, -0.374 ± 0.33 for the second.

TWGYGRDVCVRSERSGWYLS and TWKYDRMVGKIVGLALRVVT are within error of each other in amyloid nucleation score: 0.859 ± 0.28 for the first, 0.643 ± 0.43 for the second.

TWLSCPTLNHLVTNMPWY and TWLSLSLYPFSKSYSISAGF are within error of each other in amyloid nucleation score: -0.759 ± 0.39 for the first, -0.321 ± 1 for the second.

Going from TWRIYLTQRAVTSKMYLRAS to TWWIELVKLGEMVVK, the amyloid nucleation score falls from 4.74 ± 0.07 to 0.313 ± 0.65.

Going from TYCNRLRNRLMFFLYSPTTS to TYDLGCDYPIVPYVNFLCM, the amyloid nucleation score rises from -0.587 ± 0.79 to 6.59 ± 0.072.

Compared with TYGVVK, TYKAAICLGCS is higher in amyloid nucleation score: -0.047 ± 0.17 for the first, 6.548 ± 0.033 for the second.

TYKMKNMGICIYRYARLGDC and TYNKYK are within error of each other in amyloid nucleation score: 0.372 ± 0.74 for the first, -1.08 ± 0.78 for the second.

With TNDYSFWVLSHTANQPSLME the amyloid nucleation score was “inactive”.
With TPDLSLLFIIRRCIFSGTPY the amyloid nucleation score was “inactive”.
For TSYTWDHCGGHIKSRYSGVG, the amyloid nucleation score was “inactive”.
With TVMLFVSLQRCH the amyloid nucleation score was “inactive”.
For TYIFSHTAGYNFG, the amyloid nucleation score was “inactive”.
In the case of TYLFYWSLGQRCMIF, the amyloid nucleation score is reported as “inactive”.

— the supplement of paper PMC12042874
